Assay [1] deals with bovine serum albumin (BSA) (bovine, UniProt P02769 25-607). The assay is described as follows: antigen solid phase ELISA: coated BSA, anti-mouse IgG2A-HRP, A450. The protocol:
The obtained avian-mouse chimeric antibody in Example 1 and the obtained humanized antibodies (Humanized-1 and Humanized-2) and avian-human chimeric antibody in Example 2 were measured for antigenic specificity by antigen solid phase ELISA with PBS buffer. The obtained avian-mouse chimeric antibody in Example 1, which was labeled with biotin, was also measured for antigenic specificity. CL18M (+) avian-mouse chimeric antibody, which served as a negative control, was also measured for antigenic specificity. Particular measurement conditions were as follows.
Firstly, 2.5 μg/mL of antigen (mouse and human Sema 3A protein) was dispensed into a 384 Well MaxiSorp Plate (Nunc) and reacted overnight at 4° C. in order to coat the plate with the antigen. Otherwise, ovalbumin (OVA) and bovine serum albumin (BSA) were immobilized in the plate as negative controls in similar manner in order to examine specificity of antibodies. After reaction, the plate was washed three times with 50 μL/well of washing solution (PBS containing 0.05% Tween 20), to which was added 25 μL/well of blocking solution (PBS buffer containing 1% bovine serum albumin), and the mixture was reacted for 30 minutes. […] The absorbance was measured at 450 nm using Infinite M1000 (Tecan Trading AG).
A general note: An ELISA detects its analyte on a solid surface through an enzyme-linked reagent.

The target of the next assay is T1, human Sema 3A protein (human, UniProt Q14563 21-771, limits assumed).
T1 construct: also called Human Sema 3A antigen; human-derived Sema 3A protein
T1 sequence (looked up): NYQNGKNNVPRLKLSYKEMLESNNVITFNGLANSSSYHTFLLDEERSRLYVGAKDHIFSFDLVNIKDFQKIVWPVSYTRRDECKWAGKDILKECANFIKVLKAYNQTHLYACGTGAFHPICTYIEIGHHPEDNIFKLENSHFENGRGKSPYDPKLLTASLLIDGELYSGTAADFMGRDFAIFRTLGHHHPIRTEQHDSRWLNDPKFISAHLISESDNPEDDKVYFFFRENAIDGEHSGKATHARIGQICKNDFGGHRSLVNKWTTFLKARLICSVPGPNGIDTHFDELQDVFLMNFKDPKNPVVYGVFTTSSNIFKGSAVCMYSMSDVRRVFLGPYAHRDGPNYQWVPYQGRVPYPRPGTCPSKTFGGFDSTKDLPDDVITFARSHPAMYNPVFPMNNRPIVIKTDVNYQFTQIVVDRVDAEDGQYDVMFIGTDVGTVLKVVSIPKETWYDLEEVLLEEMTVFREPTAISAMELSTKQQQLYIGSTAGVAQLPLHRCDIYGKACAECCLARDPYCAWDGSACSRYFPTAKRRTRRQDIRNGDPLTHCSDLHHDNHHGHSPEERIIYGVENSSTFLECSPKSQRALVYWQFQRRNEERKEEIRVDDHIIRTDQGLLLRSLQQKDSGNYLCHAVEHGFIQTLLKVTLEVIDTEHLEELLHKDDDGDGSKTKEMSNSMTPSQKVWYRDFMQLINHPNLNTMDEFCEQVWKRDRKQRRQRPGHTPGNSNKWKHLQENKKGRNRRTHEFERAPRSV
The assay is described as follows: competitive ELISA on plate-coated human Sema 3A; competitor biotin-labelled avian-mouse chimeric antibody (clone No. 4-2) at 60 ng/mL. Here is the method:
The obtained clone No. 4-2-derived avian-mouse chimeric antibody in Example 1, the obtained humanized antibodies in Example 2 (Humanized-1 and Humanized-2) and avian-human chimeric antibody were subjected to competitive ELISA to evaluate affinity to the antigen. CL18M (+) avian-mouse chimeric antibody, which served as a negative control, was also measured for affinity to the antigen. Particular measurement conditions were as follows.
Firstly, 2.5 μg/mL of antigen (mouse and human Sema 3A protein) was dispensed into a 384 Well MaxiSorp Plate (Nunc) and reacted overnight at 4° C. in order to coat the plate with the antigen. The next day, the plate was washed three times with 50 μL/well of washing solution (PBS containing 0.05% Tween 20), to which was added 25 μL/well of blocking solution (PBS containing 1% bovine serum albumin) and the mixture was reacted for 30 minutes. Each of humanized antibodies (Humanized-1 and Humanized-2), avian-human chimeric antibody and avian-mouse chimeric antibody was subjected to serial doubling dilution, to which was mixed anti-Sema 3A avian-mouse chimeric antibody labeled with biotin to the final concentration of 60 ng/mL, and the mixture was reacted with the antigen solid phase plate which was washed three times with 50 μL/well of washing solution for one hour. The plate was washed five times with 50 μL/well of washing solution, to which was added 20 μL/well of diluent in which streptavidin labeled with horseradish peroxidase (HRP) (Thermo Fisher Scientific K.K.) was diluted 10000 times with PBS buffer and the mixture was reacted for 30 minutes. The plate was washed five times with 50 μL/well of washing solution, to which was added 20 μL/well of TMB+(Dako) and the mixture was chromogenically reacted for 20 minutes. Subsequently, to the each well was added 20 μL, of 1M sulfuric acid to quench the reaction. The absorbance was measured at 450 nm using Infinite M1000 (Tecan Trading AG).

bovine serum albumin (BSA), sequence (P02769 25-607 limits assumed): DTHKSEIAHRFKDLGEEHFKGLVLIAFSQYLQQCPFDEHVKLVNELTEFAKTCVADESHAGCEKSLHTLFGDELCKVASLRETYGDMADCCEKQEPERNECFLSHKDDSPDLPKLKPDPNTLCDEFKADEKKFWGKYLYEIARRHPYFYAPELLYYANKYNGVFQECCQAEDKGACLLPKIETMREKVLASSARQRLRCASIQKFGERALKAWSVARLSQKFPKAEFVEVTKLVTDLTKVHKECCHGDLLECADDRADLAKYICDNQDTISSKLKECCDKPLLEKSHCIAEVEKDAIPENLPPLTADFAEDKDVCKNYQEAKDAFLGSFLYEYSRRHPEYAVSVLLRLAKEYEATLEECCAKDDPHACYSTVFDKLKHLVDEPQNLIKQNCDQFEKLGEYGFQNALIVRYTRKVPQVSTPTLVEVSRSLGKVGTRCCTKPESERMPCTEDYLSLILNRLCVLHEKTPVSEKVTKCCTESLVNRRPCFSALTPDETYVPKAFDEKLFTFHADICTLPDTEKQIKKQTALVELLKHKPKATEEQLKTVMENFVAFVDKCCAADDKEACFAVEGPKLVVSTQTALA

B1: Anti-Sema 3A avian-mouse chimeric antibody (clone No. 4-2-derived) (antibody, mouse IgG2a)
heavy: AVTLDESGGGLQTPGGALSLVCKASGFTFSSYPMGWVRQAPGKGLEWVAGIDDDGDSDTRYAPAVKGRATISRDNGQSTVRLQLNNLRAEDTGTYYCAKHTGIGANSAGSIDAWGHGTEVIVSSAKTTAPSVYPLAPVCGDTTGSSVTLGCLVKGYFPEPVTLTWNSGSLSSGVHTFPAVLQSDLYTLSSSVTVTSSTWPSQSITCNVAHPASSTKVDKKIEPRGPTIKPCPPCKCPAPNLLGGPSVFIFPPKIKDVLMISLSPIVTCVVVDVSEDDPDVQISWFVNNVEVHTAQTQTHREDYNSTLRVVSALPIQHQDWMSGKEFKCKVNNKDLPAPIERTISKPKGSVRAPQVYVLPPPEEEMTKKQVTLTCMVTDFMPEDIYVEWTNNGKTELNYKNTEPVLDSDGSYFMYSKLRVEKKNWVERNSYSCSVVHEGLHNHHTTKSFSRTPGK
light: ALTQPASVSANLGGTVKITCSGGGSYTGSYYYGWYQQKSPGSALVTMIYYNNKRPSDIPSRFSGSLSGSTNTLTITGVRADDEAVYFCGSADNSGDAFGAGTTLTVLGQPKSSPSVTLFPPSSEELETNKATLVCTITDFYPGVVTVDWKVDGTPVTQGMETTQPSKQSNNKYMASSYLTLTARAWERHSSYSCQVTHEGHTVEKSLSRADCS
notes: Avian variable regions of clone No. 4-2 with mouse IgG2a heavy and mouse lambda light constant regions; also called anti-Sema 3A avian-mouse chimeric antibody (IgG)
As for B1, the binding result in assay [1] is given as “no binding (tested: about 2 µg/mL)”. Also, the IC50 – broadly, the point on the concentration scale where inhibition reaches its midpoint – with human Sema 3A protein came out at 0.074 µg/mL.

The record behind these values is patent US20150368327A1 (YOKOHAMA CITY UNIVERSITY, published 2015).
